# Laboratory results reported in publication PMC8867921.
# Biological target: nucleosome N(13,91) (chicken)
# Experiment: single-particle FRET
substance,measurement,value
poly(ADP-ribose) polymerase 1 (from UniProt P09874 1-1014) (enzyme),content of PARP1-nucleosome complexes at 50 nM PARP1,45%
